Experimental data taken from IntAct's records for PubMed 15385968.

B1: DNA repair protein XRCC4 (Homo sapiens), Q13426 (parent)
chain: MERKISRIHLVSEPSITHFLQVSWEKTLESGFVITLTDGHSAWTGTVSESEISQEADDMAMEKGKYVGELRKALLSGAGPADVYTFNFSKESCYFFFEKNLKDVSFRLGSFNLEKVENPAEVIRELICYCLDTIAENQAKNEHLQKENERLLRDWNDVQGRFEKCVSAKEALETDLYKRFILVLNEKKTKIRSLHNKLLNAAQEREKDIKQEGETAICSEMTADRDPVYDESTDEESENQTDLSGLASAAVSKDDSIISSLDVTDIAPSRKRRQRMQRNLGTEPKMAPQENQLQEKENSRPDSSLPETSKKEHISAENMSLETLRNSSPEDLFDEI

Variants of: B1
Conditions: with pnkp_human PNKP

Q: With T233A as the variant, how does the “effect of a mutation on the interaction” value read?
A: The value was “disrupting interaction”.
